# Experimental data published in the supplement of paper PMC10567573.
# B1: ZNF511 (parent)
# chain: AAPFRFVARPVRFPREHQFFEDGD
# Variants of: B1
# Test: protein stability index of a GFP-peptide fusion (GPS, HEK-293T) (PSI 1-6); higher = more stable
# Conditions: c terminus: a fixed tail appended
# 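Further: lentivirally expressed fusions sorted by FACS into six bins by GFP to DsRed ratio, PSI derived from sequencing read proportions per bin multiplied by bin number.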
row,Variant,protein stability index
1,R5I,2.67
2,R5G,3.68
3,R5A,3.53
4,R5Y,2.15
5,R5Q,4.61
6,R5M,3.25
7,P14Y,1.8
8,P14E,2.45
9,P14C,2.02
10,P14L,1.84
11,P14S,1.88
12,P14Q,2.15
13,P14G,1.76
14,P14D,2.26
15,P14R,2.51
16,R12G,2.1
17,R12S,3.73
18,R12I,2.97
19,R12P,2.22
20,R12E,1.97
21,R12V,2.23
22,R15F,2.08
23,R15G,1.74
24,R15I,1.98

row,Variant,protein stability index
1,R15N,1.62
2,R15T,2.57
3,R15Q,2.51
4,D24W,2.32
5,D24M,1.49
6,D24Y,1.83
7,D24I,1.53
8,D24V,2.73
9,D24R,2.04
10,D24G,2.08
11,D24S,2.01
12,D24A,2.23
13,D24H,1.66
14,D24T,1.72
15,D24F,1.83
16,F13E,2.36
17,F13N,1.95
18,F13T,2.37
19,F6K,4.36
20,F6W,3.41
21,F6C,2.81
22,F6H,4.18
23,F6V,3.89
24,A8Q,1.66

row,Variant,protein stability index
1,A8W,2.26
2,A8I,2.77
3,A8L,2.15
4,A8P,2.27
5,A8G,2.29
6,A8H,2.58
7,A8D,1.3
8,A8T,1.88
9,A2M,2.11
10,A2G,2.36
11,A2S,3.91
12,A2E,2.8
13,A2P,2.32
14,A2L,1.32
15,A2T,2.28
16,A2V,1.53
17,A2R,1.93
18,A1N,2.51
19,A1F,3.42
20,A1W,2.31
21,A1E,2.04
22,A1R,1.93
23,G23T,2.5
24,G23P,2.69

row,Variant,protein stability index
1,G23R,2.24
2,G23K,2.53
3,G23A,2.29
4,G23C,1.67
5,G23Y,2.35
6,G23W,2.02
7,Q18H,1.7
8,Q18C,1.64
9,Q18F,1.69
10,Q18I,2.26
11,Q18A,2.77
12,Q18K,2.46
13,V11W,1.78
14,V11M,2.06
15,V11Y,1.74
16,V11E,1.99
17,V11G,1.53
18,V11L,2.02
19,V11S,2.34
20,V11Q,2.38
21,V7F,3.69
22,V7K,3.6
23,V7T,3.23
24,V7N,3.28

row,Variant,protein stability index
1,V7A,3.9
2,V7Y,3.78
3,V7R,3.95
4,V7L,3.64
5,F4H,4.58
6,F4V,4.24
7,F4P,4.84
8,F4M,3.34
9,F4Y,3.68
10,F4L,3.65
11,E16W,1.79
12,E16S,2.1
13,E16P,2.55
14,E16Q,2.18
15,E21R,1.92
16,E21C,1.91
17,E21G,3.51
18,E21P,2.45
19,E21V,2.07
20,E21M,1.76
21,E21Q,2
22,E21T,1.64
23,F19E,2.61
24,F19C,2.08

row,Variant,protein stability index
1,F19T,2.81
2,F19S,2.25
3,F19W,2.04
4,F19H,2.39
5,F19L,2.61
6,F19V,2.11
7,F19K,2.08
8,D22G,2.34
9,D22M,1.72
10,D22A,1.94
11,D22T,2.29
12,D22E,1.98
13,D22Y,2.16
14,D22W,2.02
15,D22Q,2
16,F20I,2.27
17,F20W,1.9
18,F20Y,2.6
19,F20L,2.96
20,F20S,2.96
21,F20V,2.85
22,F20K,2.46
23,F20E,2.52
24,H17K,2.2

row,Variant,protein stability index
1,H17G,2.29
2,H17A,2.66
3,H17P,1.92
4,H17R,2.29
5,H17F,1.73
6,R9G,2.41
7,R9L,1.94
8,R9S,2.2
9,R9C,1.32
10,R9A,2.41
11,R9H,1.89
12,P10A,1.96
13,P10R,1.8
14,P10N,1.88
15,P10K,2.77
16,P10D,2.07
17,P10F,2.44
18,P10L,1.75
19,P3M,1.62
20,P3T,2.1
21,P3F,1.53
22,P3S,2.76
23,P3V,1.53
